From patent publication US20250215101A1, “DR5 Agonist and PLK1 Inhibitor or CDK Inhibitor Combination Therapy” (Inhibrx Biosciences, Inc., priority 2022, published 2025)

Assays:
[1] = tested on: cancer cell lines HT-29, LS174T, SW620, SW837, SW1463, and LS411N; experiment: Cytotoxicity screen INBRX-109 + onvansertib, summary over the cell lines; type: cell-based; conditions: combination of INBRX-109 and onvansertib
Procedure: Monolayer cultures of each cell line were harvested for compound screening as detailed below.
Onvansertib: A 10 mg stock of onvansertib was purchased from Selleck Chemicals and was resuspended to 10 mM in DMSO. This was then aliquoted and stored at −80° C. Aliquots were thawed immediately prior to dilution and use in the assay. A 500× master plate of serial dilutions (6-point 5-fold dilutions in 100% DMSO starting at 500 μM, plus a DMSO only control) was prepared and mixed gently with a pipette. To generate a 5× working dilution plate of onvansertib, a 1:100 dilution was performed from the 500× plate into complete media (EMEM).
Also on day 2, test and control articles were added.
On day 4, viability measurements were taken. […] Data was graphed in GraphPad Prism 9.

CAL-78 = experiment: Cell viability (CellTiter-Glo) cytotoxicity assay, INBRX-109 x CDK9 or MCL-1 inhibitor matrix, 48 h, chondrosarcoma line
Procedure: (§1) On day 1, cells were seeded as follows. Monolayer cultures of each cell line (chondrosarcoma: CAL-78, OUMS-27, SW1353, and H-EMC-SS; colorectal cancer: SW620; and synovial sarcoma: HS-SY-II) were harvested for compound screening. Culture medium was aspirated, and the cells were washed once with PBS. Accutase was added and flasks were incubated at 37° C. until cells became detached. An equal volume of complete medium was added to quench the Accutase, and the cells were then pipetted up and down several times to generate a homogenous single cell suspension. The density and viability of cells was determined by Trypan Blue using a TC20 Automated Cell Counter. Experimental cells were resuspended to a concentration of 0.17×10^6/mL in Eagle's Minimum Essential Medium (EMEM)/10% FBS/Anti-Anti media (complete EMEM) and seeded in the inner wells of 384-well luminescence plates at 15 mL/well (2,500/well final). Each cell line was plated in duplicate on separate plates. Outer wells were filled with 50 mL PBS, then plates were incubated in a humidified temperature-controlled 37° C. tissue culture incubator at 5% CO2 overnight for 16 hours.
(§2) These test articles were added, in duplicate, to each cell line. The plates were then centrifuged at 400×g for 1 minute, then incubated in a 37° C. humidity-controlled tissue culture incubator (5% CO2) for 48 hours.
(§3) After incubation with the test articles, viability measurements were taken, briefly. Plates were equilibrated to room temperature for 10 minutes, then 25 μL of CellTiter-Glo 2.0® was added to each well. Plates were spun for 1 minute at 400×g, then covered and incubated in the dark for 10 minutes at room temperature. Any visible bubbles were removed with 100% ethanol vapor, then luminescence (RLU) was read on the Spectra Max M5e plate reader, using the 384-well opaque plate setting and SoftMax® Pro v5.4 software with an integration time of 50 milliseconds. To determine the effect of test articles on cell viability, raw RLU values were exported to Excel and percent survival was calculated as a percentage of vehicle control (0.5% DMSO in EMEM), where the vehicle control is set at 100%. Data was graphed in GraphPad Prism 9.

SW620 = experiment: Cell viability (CellTiter-Glo) cytotoxicity assay, INBRX-109 x CDK9 or MCL-1 inhibitor matrix, 48 h, colorectal cancer line
Procedure: as §1, §2, §3

SW1353 = experiment: Cell viability (CellTiter-Glo) cytotoxicity assay, INBRX-109 x CDK9 or MCL-1 inhibitor matrix, 48 h, chondrosarcoma line
Procedure: as §1, §2, §3

OUMS-27 = experiment: as above
Procedure: as §1, §2, §3

H-EMC-SS = experiment: as above
Procedure: as §1, §2, §3

HS-SY-II = experiment: Cell viability (CellTiter-Glo) cytotoxicity assay, INBRX-109 x CDK9 or MCL-1 inhibitor matrix, 48 h, synovial sarcoma line
Procedure: as §1, §2, §3

[2] = INBRX-109 + 125 nM flavopiridol

In the case of `CN1CCN(c2ccc(OC(F)(F)F)c(Nc3ncc4c(n3)-c3c(c(C(N)=O)nn3CCO)CC4)c2)CC1` [Onvansertib], the “cell killing by the combination” value [1] is reported as “increased cell killing on every cancer cell line tested”.

B1: INBRX-109: DR5-binding polypeptide consisting of SEQ ID NO: 7 (two VHH domains and an Fc region); DR5 agonist (protein)
chain: EVQLLESGGGEVQPGGSLRLSCAASGLTFPNYGMGWFRQAPGKEREFVSAIYWSGGTVYYAESVKGRFTISRDNAKNTLYLQMSSLRAEDTAVYYCAVTIRGAATQTWKYDYWGQGTLVTVKPGGSGGSEVQLLESGGGEVQPGGSLRLSCAASGLTFPNYGMGWFRQAPGKEREFVSAIYWSGGTVYYAESVKGRFTISRDNAKNTLYLQMSSLRAEDTAVYYCAVTIRGAATQTWKYDYWGQGTLVTVKPGGGGDKTHTCPPCPAPGGPSVFLFPPKPKDTLMISRTPEVTCVVVDVSHEDPEVKFNWYVDGVEVHNAKTKPREEQYNSTYRVVSVLTVLHQDWLNGKEYKCKVSNKALPAPIEKTISKAKGQPREPQVYTLPPSRDELTKNQVSLTCLVKGFYPSDIAVEWESNGQPENNYKTTPPVLDSDGSFFLYSKLTVDKSRWQQGNVFSCSVMHEALHNHYTQKSLSLSPGK
modifications: INBRX-109
notes: DR5 agonist
For B1, the EC50 (CAL-78; INBRX-109 + 2 μM AZD-5991) was 0.00393 nM, the EC50 (CAL-78; INBRX-109 only (Table 5)) was greater than 3.6 nM and the EC50 (CAL-78; INBRX-109 only (Table 7)) was “unstable”. For the same molecule, the EC50 (CAL-78; INBRX-109 only (Table 9)) was 0.0172 nM, the EC50 (CAL-78; INBRX-109 only (Table 11)) was 0.029 nM and the EC50 (SW620; INBRX-109 + 2 μM AZD-5991) was 5.78 pM. The EC50 (SW620; INBRX-109 only (Table 5)) was 7.8 pM, the EC50 (SW620; INBRX-109 only (Table 7)) was 98.1 pM and the EC50 (SW620; INBRX-109 only (Table 9)) was 1.37 pM. The EC50 (SW620; INBRX-109 only (Table 11)) was 1.98 pM, the EC50 (SW620; INBRX-109 only (Table 13)) was 9.84 pM and the EC50 (SW1353; INBRX-109 + 125 nM enitociclib) was 1.05 pM. The EC50 (SW1353; [2]) was 2.81 pM, the EC50 (SW1353; INBRX-109 + 2 μM AZD-5991) was 5.33 pM and the EC50 (SW1353; INBRX-109 only (Table 5)) was “unstable”. For the same molecule, the EC50 (SW1353; INBRX-109 only (Table 7)) was “unstable”, the EC50 (SW1353; INBRX-109 only (Table 9)) was “Unstable” and the EC50 (SW1353; INBRX-109 only (Table 11)) was 9.1 pM. For the same molecule, the EC50 (SW1353; INBRX-109 only (Table 13)) was “Unstable”, the EC50 (OUMS-27; INBRX-109 + 2 μM AZD-5991) was 0.00871 nM and the EC50 (OUMS-27; INBRX-109 only (Table 5)) was 0.982 nM. The EC50 (OUMS-27; INBRX-109 only (Table 7)) was greater than 4.09 nM, the EC50 (OUMS-27; INBRX-109 only (Table 11)) was “Unstable” and the EC50 (OUMS-27; INBRX-109 only (Table 13)) was 8.87 nM. It also gave an EC50 (H-EMC-SS; INBRX-109 + 125 nM enitociclib) of 2.33 pM, an EC50 (H-EMC-SS; [2]) of 1.46 pM and an EC50 (H-EMC-SS; INBRX-109 + 2 μM AZD-5991) of 2.59 pM. It also gave an EC50 (H-EMC-SS; INBRX-109 only (Table 5)) of 2.2 pM, an EC50 (H-EMC-SS; INBRX-109 only (Table 7)) of 1.96 pM and an EC50 (H-EMC-SS; INBRX-109 only (Table 9)) of 9.25 pM. For the same molecule, the EC50 (H-EMC-SS; INBRX-109 only (Table 11)) was 9.26 pM, the EC50 (H-EMC-SS; INBRX-109 only (Table 13)) was 10.2 pM and the EC50 (HS-SY-II; INBRX-109 + 125 nM enitociclib) was 0.646 nM. The EC50 (HS-SY-II; [2]) was 0.00193 nM, the EC50 (HS-SY-II; INBRX-109 + 2 μM AZD-5991) was “Unstable” and the EC50 (HS-SY-II; INBRX-109 only (Table 9)) was “Unstable”. For the same molecule, the EC50 (HS-SY-II; INBRX-109 only (Table 11)) was 0.011 nM.
